Measurements as given in publication PMC9896144, “A “grappling hook” interaction connects self-assembly and chaperone activity of Nucleophosmin 1” (PNAS Nexus, 2023).
Where “and” joins values, the source holds several entries; their conditions need not be identical. Identical values can stand only once.

B1: NPM1_(120), the N-terminal pentamerization domain (NTD) of NPM1 (domain or fragment, human, UniProt P06748 1-120, looked up)
chain: MEDSMDMDMSPLRPQNYLFGCELKADKDYHFKVDNDENEHQLSLRTVSLGAGAKDELHIVEAEAMNYEGSPIKVTLATLKMSVQPTVSLGGFEITPPVVLRLKCGSGPVHISGQHLVAVE
notes: Nucleophosmin 1, human, NTD with the A1 tract, residues 1 to 120; exact construct and tags are in the supplementary methods; also called NPM120; isolated NTD; source: produced by the authors
B2: NPM1_(188), the NTD and the acidic regions of the IDR of NPM1 (domain or fragment, human, UniProt P06748 1-188, looked up)
chain: MEDSMDMDMSPLRPQNYLFGCELKADKDYHFKVDNDENEHQLSLRTVSLGAGAKDELHIVEAEAMNYEGSPIKVTLATLKMSVQPTVSLGGFEITPPVVLRLKCGSGPVHISGQHLVAVEEDAESEDEEEEDVKLLSISGKRSAPGGGSKVPQKKVKLAADEDDDDDDEEDDDEDDDDDDFDDEEAEE
notes: Nucleophosmin 1, human, NTD and acidic tracts A1-3, C-terminally truncated at residue 188; exact construct and tags are in the supplementary methods; Mostly pentameric; also called NPM188; source: produced by the authors
B3: NPM1AML, NPM1 variant with an AML mutation at the C-terminus (natural protein, human, UniProt P06748 1-294, looked up)
chain: MEDSMDMDMSPLRPQNYLFGCELKADKDYHFKVDNDENEHQLSLRTVSLGAGAKDELHIVEAEAMNYEGSPIKVTLATLKMSVQPTVSLGGFEITPPVVLRLKCGSGPVHISGQHLVAVEEDAESEDEEEEDVKLLSISGKRSAPGGGSKVPQKKVKLAADEDDDDDDEEDDDEDDDDDDFDDEEAEEKAPVKKSIRDTPAKNAQKSNQNGKDSKPSSTPRSKGQESFKKQEKTPKTPKGPSSVEDIKAKMQASIEKGGSLPKVEAKFINYVKNCFRMTDQEAIQDLCLAVEEVSLRK
notes: Compared directly with FL NPM1, so most likely the whole protein with the changed C-terminus; also called AML variant; source: purified by the authors
B4: rpL5_(21-37), residues 21 to 37 of ribosomal protein L5 (peptide, UniProt P46777 21-37, looked up)
peptide: RRRREGKTDYYARKRLV
notes: ribosomal protein L5 (rpL5), residues 21 to 37, with two basic motifs; printed mass 2.2 kDa; also called rpL5 peptide; rpL5_(12-37)

How the values were obtained:
[1] = biological target: NPM1_(ΔIDR), NPM1 variant in which NTD and CTD are linked without the IDR (human) (UniProt P06748); assay: native MS; each NPM1 variant alone; nESI with collision-induced dissociation, collision voltages 25 to 75 V
[2] = biological target: the molecule itself; assay: as above
[3] = biological target: the molecule itself; assay: native MS; NPM1_120 or FL NPM1 in the presence of the rpL5_21-37 peptide; collisional activation
[4] = biological target: B1; assay: as above; details: both partners purified
[5] = biological target: T1, Full-length (FL) Nucleophosmin 1 (human, UniProt P06748 1-294); assay: as above; details: both partners purified
T1 construct: Forms pentamers that assemble into large oligomers without defined stoichiometry; PDB 8AS5 models only the N-terminal core; also called NPM1; FL NPM1; source: produced by the authors

Molecule: NPM1_(ΔIDR), NPM1 variant in which NTD and CTD are linked without the IDR (from UniProt P06748 1-120; P06748 240-294)
- stoichiometry N [1]: 5 and 10

Molecule: B1
- stoichiometry N [2]: 10
- stoichiometry N [3]: ≥ 25 subunits

Molecule: B2
- stoichiometry N [2]: 5 and 10

Molecule: B3
- binding result [2]: binds

Molecule: B4
- binding result [4]: binds
- binding result [5]: binds
